Experimental data taken from paper PMC8816346 (Science Advances, 2022).

Target: TOPBP1, purified recombinant (human, UniProt Q92547 1-1522)
Experiment: pull-down

Sequence of TOPBP1, purified recombinant (Q92547 whole entry): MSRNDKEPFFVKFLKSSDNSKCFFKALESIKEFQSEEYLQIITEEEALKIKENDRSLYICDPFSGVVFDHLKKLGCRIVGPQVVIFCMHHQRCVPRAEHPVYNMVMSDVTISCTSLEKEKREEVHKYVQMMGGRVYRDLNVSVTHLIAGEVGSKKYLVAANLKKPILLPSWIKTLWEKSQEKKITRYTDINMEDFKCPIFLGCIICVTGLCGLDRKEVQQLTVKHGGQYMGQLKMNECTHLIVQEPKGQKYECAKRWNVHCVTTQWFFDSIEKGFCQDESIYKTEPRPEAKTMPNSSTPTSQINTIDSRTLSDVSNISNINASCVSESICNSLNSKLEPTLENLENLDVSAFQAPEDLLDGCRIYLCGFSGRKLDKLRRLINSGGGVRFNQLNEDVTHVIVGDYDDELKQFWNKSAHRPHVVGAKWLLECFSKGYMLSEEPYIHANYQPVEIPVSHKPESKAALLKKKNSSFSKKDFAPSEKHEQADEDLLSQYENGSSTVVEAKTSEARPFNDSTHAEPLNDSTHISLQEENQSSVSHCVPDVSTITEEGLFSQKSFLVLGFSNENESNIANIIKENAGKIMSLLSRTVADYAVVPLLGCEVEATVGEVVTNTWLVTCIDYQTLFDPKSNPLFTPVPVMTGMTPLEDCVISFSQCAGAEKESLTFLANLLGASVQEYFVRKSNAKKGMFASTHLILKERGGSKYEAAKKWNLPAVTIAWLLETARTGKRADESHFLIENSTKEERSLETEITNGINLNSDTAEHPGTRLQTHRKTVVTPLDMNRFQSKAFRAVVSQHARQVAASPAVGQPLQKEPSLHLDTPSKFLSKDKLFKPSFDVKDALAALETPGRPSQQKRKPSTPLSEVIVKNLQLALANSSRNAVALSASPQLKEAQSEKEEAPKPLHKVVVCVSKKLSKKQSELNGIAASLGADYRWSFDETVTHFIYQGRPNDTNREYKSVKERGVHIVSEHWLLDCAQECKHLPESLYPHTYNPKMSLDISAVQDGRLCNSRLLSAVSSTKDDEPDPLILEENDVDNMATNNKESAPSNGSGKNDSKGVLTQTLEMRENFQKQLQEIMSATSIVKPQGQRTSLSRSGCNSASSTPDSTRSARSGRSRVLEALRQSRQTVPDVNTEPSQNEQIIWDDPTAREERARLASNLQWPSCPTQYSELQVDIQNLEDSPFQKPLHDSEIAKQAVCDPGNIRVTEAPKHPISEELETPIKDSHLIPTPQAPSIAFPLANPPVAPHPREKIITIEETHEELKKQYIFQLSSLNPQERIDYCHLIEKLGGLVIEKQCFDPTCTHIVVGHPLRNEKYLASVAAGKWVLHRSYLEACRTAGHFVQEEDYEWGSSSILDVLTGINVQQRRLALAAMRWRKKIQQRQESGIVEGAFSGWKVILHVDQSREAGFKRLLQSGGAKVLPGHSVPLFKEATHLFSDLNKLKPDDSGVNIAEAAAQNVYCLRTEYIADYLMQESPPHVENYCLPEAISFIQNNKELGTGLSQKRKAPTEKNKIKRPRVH

- binding result: binds
B1: BLM^λ (BLM^P dephosphorylated with λ-phosphatase) (natural protein)
chain: not shown
